Laboratory results as given in the DeepSol protein solubility set.

Assay: soluble on expression in E. coli; label from the status in PepcDB or PDB records

With “GSHMAITGTIAAIATAIVPQQGSVGIVRVSGSQAIAIAQTLFDAPGKQVWESHRILYGYIRHPQTRQIVDEALLLLMKAPRSYTREDVVEFHCHGGIIAVQQVLQLCLESGARLAQPGEFTLRAFLNGRLDLTQAESIADLVGARSPQAAQTALAGLQGKLAHPIRQLRANCLDILAEIEARIDFEEDLPPLDDEAIISDIENIAAEISQLLATKDKGELLRTGLKVAIVGRPNVGKSSLLNAWSQSDRAIVTDLPGTTRDVVESQLVVGGIPVQVLDTAGIRETSDQVEKIGVERSRQAANTADLVLLTIDAATGWTTGDQEIYEQVKHRPLILVMNKIDLVEKQLITSLEYPENITQIVHTAAAQKQGIDSLETAILEIVQTGKVQAADMDLAINQRQAAALTQAKMSLEQVQATITQQLPLDFWTIDLRGAIQALGEITGEEVTESVLDRIFSRFCIGK” as the sequence, how does the “soluble on expression in E. coli” value read?
Its value is “soluble”.

For “MGSDKIHHHHHHMSDLINIQKKLLPDVLMIMQKRYQILRSIYFSEPVGRRTLAGMLGMSERVLRGEVEFLKAQGLVEIASSGMTVTKEGLVVFRDLESVMNQLSGLHSMEEQLAKKLQIKKCLVVQGDSDDTPWVREEMGRVAVEQLDMALTEKRNIVAVMGGSTMATVAEMMTTDFAKGRELLFVPGRGGIGEDLDNQANTICDKMATKTNTKHRVLYVPEQLGEEAYRSLLKEPAIQEGLRLVQSANAIILGIGDALAMAKRRHTGEDVLEKIIHRKAVGEAFGYYFDEQGEVVHKVPTFGLQFEDLAQIPHIIAVAGGTSKAKAIKSYMKSAPKNTILITDEGAAKSLLKGSNTLLK”, which “soluble on expression in E. coli” value is on record?
The value was “not soluble”.

For “MGSDKIHHHHHHMMSQEQNDLITRVGPGTPCGKLMRAYWQPAALVDELEGERPIKPVRLLGEDLVLFKDETGRYGLIDRDCPHRGADLAFGRLENGGLRCAFHGWLFDVDGKCIDTPAEPAGSPLCKNIKQRAFPVVAKGGILWAYLGAGEPPAFPEIDCFIAPDTHVFAFKGLMECNWLQALEVGIDPAHASFLHRFFEDEDTSQAYGKQFRGASAGSDLPMTKVLREYDRPIINVEHTEYGLRLIALREIDDERTHVRVTNQLFPHGFVIPMSTEMTITQWHVPVDDTHCYWYAIFTSYAAPVDKVKMRDQRLELYELPNYKSRRNKTNDYGFDPHEQATATYTGMGLDINVHDQWAVESMGAIQDRTREHLGQSDKAIIQYRRLLRQEIEKAASGGKPLLALDEAAARAIQGPATMDGIGPSRGWETYWMEVDVKRRRGAPWAVPVPSEIAAKVPHLTAAE”, which “soluble on expression in E. coli” value is on record?
The value was “not soluble”.

Which “soluble on expression in E. coli” value does the source give for “MGSDKIHHHHHHMLGENIYLQRTQIGMTQENLSDYLHLTKTTISKWENNQAKPDIDYLILMANLFDISLDDLVGYQKTLSDDQRNQLIKDLKIKANVLSERDFFQEVKELSKQFPNDFKTLLIMINMVLSNLTNLNDSEMKEWSLSTLNKIISKTVVESDLQTAIMFKTVVLFHNLEYDEVINLYQNSPYKLGEELLLANSFFAKVDVYRAKQVLQVEIYQQILLVCEYLLSLSTFEVEENKGDIFERLEHMIEAFQLNSLHPNTVIKCYYSLACHYSKSDDDKALGYLKQCFKSLKQLLQRFELHGDTFFYTIDDWLETIPTGIAPPTSQLQVIERVEDLFQNSQFKELSGHKEFQQMIQKLNDLKKDY” here?
The value was “not soluble”.

With “MAHHHHHHMSPVIALHEDLQKRLEEYRSTRGFSPVKWIEQKCAALNEYMASHGLKVCVTSVSGGIDSAVVLALCSRAMRMPNSPIVRNVGICQPICSSAWALARGRENIQSCGALEVIVDQTELYKQLSRIVETAVGIDGQNFARGQLRSYMRTPVAYYVAQLYSQEGNAAIVMGTGNMDEDGYLAYFCKAGDGVVDVQLISDLHKSEVFRVARELGVPANTLQASPSADLWEGQTDEEELGFPYDFVELYTGWCLQLSDEERQSFLHSLSSDARQQYEKYKDACENTHRRNAHKLRGPINL” as the sequence, how does the “soluble on expression in E. coli” value read?
The value was “soluble”.

Which “soluble on expression in E. coli” value does the source give for “AEPTTHFGYQNVPESQKAKKVAEVFHSVAAKYDLMNDLMSGGIHRLWKRFTIELSGVRSGNRVLDIAGGTGDLTRQFSRLVGPTGEVVLADINASMLKVGRDKLLDKGVSGNVSFVQADAEKLPFPDNHFDCVTIAFGLRNVTHKDEAIRSMLRVLKPGGRLLVLEFSKPSSNLLSKAYDAYSFSLLPLMGKLVTNDSESYRYLAESIRMHPDQETLKAMMVEAGFDRVTYHNMTGGIV” here?
The value was “not soluble”.

With “MEDPQSKEPAGEAVALALLESPRPEGGEEPPRPSPEETQQCKFDGQETKGSKFITSSASDFSDPVYKEIAITNGCINRMSKEELRAKLSEFKLETRGVKDVLKKRLKNYYKKQKLMLKESNFADSYYDYICIIDFEATCEEGNPPEFVHEIIEFPVVLLNTHTLEIEDTFQQYVRPEINTQLSDFCISLTGITQDQVDRADTFPQVLKKVIDLMKLKELGTKYKYSLLTDGSWDMSKFLNIQCQLSRLKYPPFAKKWINIRKSYGNFYKVPRSQTKLTIMLEKLGMDYDGRPHCGLDDSKNIARIAVRMLQDGCELRINEKMHAGQLMSVSSSLPIEGTPPPQMPHFRK” as the sequence, how does the “soluble on expression in E. coli” value read?
The value was “soluble”.

With “MTTTKANLTEFEQQLVDKAIGAMENAYCKYSNFKVGAALVCDDGEIIIGANHENASYGATICAERSAIVTALTKGHRKFKYIVVATELEAPCSPCGVCRQVLIEFGDYKVILGSSTSDQIIETTTYELLPYAFTPKSLDDHEKETEERKHHNDHNNKE” as the sequence, how does the “soluble on expression in E. coli” value read?
The value was “not soluble”.

Which “soluble on expression in E. coli” value does the source give for “MGSDKIHHHHHHMRLFTSKSRYLIGVDIGTTSVKLVDIQRQQGVFHLRSYGTEILSEGIVIDKLIVDTEAVGNTIAGLARRCQAVGSSAATAVSGSAVITKIIDMDMVLNDVEREAQIRLDADQYIPYPLDDVNLDFEVLGPSLINDDMVQVLLAASRSENVDQRVDALTFGGLQTKVMDIESHAIERAFGLMVDSLPNLPELVALVDIGHNQTTLYVAKNGEFIYSREQLFGGSQLTEAIQNRYGLSAEEASISQREHALPEDYYPDVLTPFIENTIQQITRSLQFYFSSSQYSSIDHVVLAGGSSAIAGLAGMAQQRLGVPVSIANPFINMTIAPHIDHEQLAIDAPSLMAACGLALRSFD” here?
The value was “not soluble”.

With “MGSDKIHHHHHHMEIGIAASVSELDGVQWDALSDGSPLLSHAFLSALEHSGSVGEGTGWQPMPLTVRRDGKLIGAVPLYLKHHSYGEYVFDWSWAGAYTQHGGEYYPKLVAAVPFTPITGSRLLSHDPMLQAHMAEVLRDTVQRLQLSSAHVLFPDEQSAEVLSGQGWLRRQGVQFRWHNQGFASFDEFLMTLTHDKRKKIRQERRKVDAAGVICRRLLGAEIGEREWDFFYKCYVNTYLEHRSSPYLTQAFFHELGERLPGNVMLVLAERDGRRIGAALNLYDTDCLYGRYWGALAYVPNLHFELCYYQAQLFCIERGIRFFEGGAQGEHKLARGFVARETCSFHHIAHPDFEAAIRHFVSREAVGVSHYQQELDERAPYRKPG” as the sequence, how does the “soluble on expression in E. coli” value read?
Its value is “not soluble”.

Which “soluble on expression in E. coli” value does the source give for “MTWQPFYVGTGQAPAGAEEQVVLPPAPPWREFPRRSQHRQFVPPPRLAEAVNAALALRRPLLVTGPAGSGKSTVIEQVAAELALGDVLRWHITSRSSLAEALYRYDALGRIHAQRLEGPGGSDDIAPFLRMGPLGTALLPSARPRALLIDEIDKSDLDLPSDLLDVLERGEFEIPELARYGTDVVPVREHGGERTHLIARGRVQCAEFPFIVMTSNGDRDFPAAFLRRCIRFTMPLPTPETLLRVVEAHMGPEKAAADETGRLITVFLERLTAGESLAVDQLLNAVHLLTGDGAPGDDRRQAIAELILRELSHALEHHHHHH” here?
Its value is “not soluble”.

Which “soluble on expression in E. coli” value does the source give for “MGSDKIHHHHHHMATSIETSFPDAPSTTPVLEMQGITKRFHGVSALQNVNLTIYPGEVHALMGENGAGKSTLMKILAGAYIADEGEIRINGQPLKITDPATARKAGINLIYQELNVAPNLTVTENMFMGSELRRGQFLDRKAMQLEAEQVLDSLGANFTAQTIVGTLSIAEQQQVEIARALKDKSRVLVMDEPTAALSDRESDHLFEVIRKLRSDGIAIIYISHRMEEIYALADRISVLRDGQYIGSLTRSEISPQRLVQMMVGRSMQDFYEHQRQMNPGPVVLEVRNMSDARKKIEPASFELHAGEILGLAGLVGAGRTELSRLIFGADRKASGEVFLNGKKLEINTPSDAIAAGIGYVPEDRKDQGLFLEMSARKNIAINTLKQDAKGGIVNWPSVNRLSTEAVENFNIRLANLEIRALDLSGGNQQKLLLARWLAIKPRVLMLDEPTRGVDIGAKSEIYRIMSELAAQGVAILMVSSELSEIVGMSDRVLVMREGQLVGELDGSLGKEITQEKIMHYATGASEVSAL” here?
The value was “not soluble”.
